# Measured values: article doi:10.1101/2023.02.13.526773
# Legend:
# [1] = biological target: FLAG-tagged GFP11-CHAMP-1 fusion (N-terminal GFP11); assay: split reporter
# [2] = biological target: mEpoR-TM2 (isotope-labelled recombinant mEpoR TM domain fragment) (mouse); assay: SDS-PAGE
fold MFI over cells expressing either fusion alone [1],stoichiometry N [2],Substance
> 4 fold,,mEpoR-GFP1-10 fusion protein (domain or fragment)
,2,mEpoR-TM2 (isotope-labelled recombinant mEpoR TM domain fragment) (domain or fragment)
